Measured values: patent US6858210B1, “Therapeutic and diagnostic domain 1 β2GPI polypeptides and methods of using same” (La Jolla Pharmaceutical Co., priority 1998, dated 2005)
Where two headings read alike, the source gives them in different places.

How the values were obtained:
[1] = molecular target: affinity purified β2-GPI domain 1 specific antibodies from patients 6701 and 6626; experiment: Surface plasmon resonance Kd determination on immobilized antibodies; type: binding, human; conditions: read-out: Apparent equilibrium dissociation constant
Procedure: Reagents. CM5 chips, NHS and EDC and HBS-EP buffer were from BIAcore. Human pooled normal IgG (Zymed) was immobilized in a separate flow cell on the chip and used as a negative control. Affinity purified 2-GPI domain 1 specific antibodies from 2 patients (6701 and 6626) were immobilized in separate flow cells.
Surface Plasmon Resonance. All experiments were done on a BIAcore™ 2000 instrument at 25° C. with a flow rate of 10 μL/minute. Chip equilibration and binding studies were performed with degassed HBS-EP buffer, which consists of 0.01 M HEPES pH 7.4, 0.15 M NaCl, 3 mM EDTA and 0.005% (v/v) surfactant β20. […]
Titrations. […] Since the approach to binding equilibrium was incomplete during the measurement period, the equilibrium binding value (Req) was determined by fitting the association curves to the following equation using the manufacturer software (BiaEvaluation version 2.2, Uppsala, Sweden)): Rt=Req(1−e^−ks(t−t0))+R0 where Rt is the measured BIAcore response at time t, Req is the equilibrium plateau response, t is time, t0 is initial time, ks is an apparent association constant (ks=kaC+kdis where ka is the association constant, C is the analyte concentration and kdis is the dissociation constant), and R0 is a response offset, (Marquart-Levenberg algorithm). […]

[2] = system: antiphospholipid antibody in plasma from patient 6501; experiment: Competitive antibody binding ELISA with patient plasma on β2GPI coated plates; parameters: species or system human; conditions: plasma patient 6501, 1:200
Procedure: Nunc Maxisorp microplates (Nalge Nunc International, Denmark) were coated with 100 μL/well of β2GPI at 2.5 μg/mL in PBS, incubated for 2 hours at room temperature, and blocked for 2 hours at room temperature with 250 μl/well of 2% nonfat milk with […] (Sigma Chemical Co.). […] After incubation for one hour at room temperature the plates were washed 5× with TBS. To each well was added 100 μL of alkaline phosphatase-conjugated anti-human IgG, gamma chain specific (Zymed) diluted 1:1000 in 2% nonfat milk with 0.4% Tween-80. After one hour at room temperature the plates were washed 5× with TBS. To each well was added 100 μl PPMP chromogenic substrate solution for color development at room temperature. Optical absorbance per well was determined at A550nm in a commercial microplate reader (Bio-Tek Instruments EL3 11).

[3] = molecular target: affinity purified β2GPI-dependent antiphospholipid antibody from patient 6203; experiment: comp. inhibition ELISA
[4] = molecular target: affinity purified β2GPI-dependent antiphospholipid antibody from patient 6509; experiment: comp. inhibition ELISA
[5] = molecular target: affinity purified β2GPI-dependent antiphospholipid antibody from patient 6632; experiment: comp. inhibition ELISA
[6] = molecular target: affinity purified β2GPI-dependent antiphospholipid antibody from patient 6644; experiment: comp. inhibition ELISA
[7] = molecular target: affinity purified β2GPI-dependent antiphospholipid antibody from patient 6652; experiment: comp. inhibition ELISA
[8] = molecular target: affinity purified β2GPI-dependent antiphospholipid antibody from patient 7008; experiment: comp. inhibition ELISA
[9] = molecular target: affinity purified β2GPI-dependent antiphospholipid antibody from patient 7101; experiment: comp. inhibition ELISA
[10] = molecular target: affinity purified β2GPI-dependent antiphospholipid antibody from patient 7104; experiment: comp. inhibition ELISA
[11] = molecular target: affinity purified β2GPI-dependent antiphospholipid antibody preparation 6641 (from patient 6641); experiment: comp. inhibition ELISA
[12] = molecular target: β2GPI-dependent antiphospholipid antibody from patient 6501; experiment: comp. inhibition ELISA
[13] = molecular target: β2GPI-dependent antiphospholipid antibody from patient 6626; experiment: comp. inhibition ELISA
[14] = molecular target: β2GPI-dependent antiphospholipid antibody from patient 6701; experiment: comp. inhibition ELISA
[15] = molecular target: β2GPI-dependent antiphospholipid antibody from patient 7015; experiment: comp. inhibition ELISA

B1: 1----: recombinant β2GPI protein with domain 1 only (SEQ ID NO:4 region), His6 tail (protein)
chain: GRTCPKPDDLPFSTVVPLKTFYEPGEEITYSCKPGYVSRGGMRKFICPLTGLWPINTLKCTPRVGHHHHHH
- Kd ([1]; immobilized antibody from patient 6626): 0.333 ± 0.018 µM
- Kd ([1]; immobilized antibody from patient 6701): 0.417 ± 0.036 µM
- competition for antiphospholipid antibody binding to β2GPI [2]: Competitive binding is also exhibited

B2: recombinant β2GPI domain 5 with GlyHis6 (----5) (protein)
chain: GRASCKLPVKKATVVYQGERVKIQEKFKNGMLHGDKVSFFCKNKEKKCSYTEDAQCIDGTIEVPKCFKEHSSLAFWKTDASDVKPCGHHHHHH
- IC50 [3]: > 47 µM
- Max inhibition [3]: 5%
- IC50 [4]: > 47 µM
- Max inhibition [4]: 10%
- IC50 [5]: > 47 µM
- Max inhibition [5]: 10%
- IC50 [6]: > 47 µM
- Max inhibition [6]: 10%
- IC50 [7]: > 47 µM
- Max inhibition [7]: 15%
- IC50 [8]: > 47 µM
- Max inhibition [8]: 20%
- IC50 [9]: > 47 µM
- Max inhibition [9]: 5%
- IC50 [10]: > 47 µM
- Max inhibition [10]: 0%
- IC50 [11]: > 47 µM
- Max inhibition [11]: 10%
- IC50 [12]: > 47 µM
- Max inhibition [12]: 10%
- IC50 [13]: > 47 µM
- Max inhibition [13]: 10%
- IC50 [14]: > 47 µM
- Max inhibition [14]: 10%
- IC50 [15]: > 47 µM
- Max inhibition [15]: 10%
